Experiments:
LXRa:RXRa = LXRa:RXRa (Homo sapiens, UniProt Q13133;P19793 full;full); assay: no ligand; PBM; 270 nM : 90 nM RXRa; PBS pH 7.4, 2% milk, 0.02% Triton X-100, 1 mM DTT, BSA, 0.4 mg/ml salmon testes DNA; conditions: tags: His kept;His cleaved; copies: 1;1; label: surface-attached array probe
Method in brief: (§1)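 For binding z-scores, the reference was random background probes on custom Agilent 4×180K protein-binding microarrays. These arrays were incubated 1 h with ligand-free nuclear receptor dimers in PBS pH 7.4, 2% milk, 0.02% Triton X-100, 1 mM DTT, 0.2 mg/mL BSA and 0.4 mg/ml salmon testes DNA. Fluorescence was scanned after antibody detection of each partner (one per run) and regression-normalized.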

PPARa:RXRa = PPARa:RXRa (Homo sapiens, UniProt Q07869;P19793 full;full); assay: as above; conditions: tags: GST kept;His cleaved; copies: 1;1; label: surface-attached array probe
Chain of PPARa:RXRa (Q07869 whole entry, chain 1 of 2): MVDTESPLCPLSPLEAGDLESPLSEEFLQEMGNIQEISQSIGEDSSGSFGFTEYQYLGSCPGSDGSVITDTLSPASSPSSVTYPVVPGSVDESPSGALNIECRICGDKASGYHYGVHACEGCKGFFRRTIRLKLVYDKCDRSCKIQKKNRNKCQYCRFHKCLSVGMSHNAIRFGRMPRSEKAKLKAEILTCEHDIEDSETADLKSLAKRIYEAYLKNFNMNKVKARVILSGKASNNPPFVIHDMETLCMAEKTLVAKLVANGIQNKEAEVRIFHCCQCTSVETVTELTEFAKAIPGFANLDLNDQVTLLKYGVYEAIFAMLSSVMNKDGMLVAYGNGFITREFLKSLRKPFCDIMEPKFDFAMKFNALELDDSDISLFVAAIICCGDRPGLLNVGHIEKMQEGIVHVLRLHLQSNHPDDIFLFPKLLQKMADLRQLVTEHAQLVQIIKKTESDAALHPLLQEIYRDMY
Chain of PPARa:RXRa (P19793 whole entry, chain 2 of 2): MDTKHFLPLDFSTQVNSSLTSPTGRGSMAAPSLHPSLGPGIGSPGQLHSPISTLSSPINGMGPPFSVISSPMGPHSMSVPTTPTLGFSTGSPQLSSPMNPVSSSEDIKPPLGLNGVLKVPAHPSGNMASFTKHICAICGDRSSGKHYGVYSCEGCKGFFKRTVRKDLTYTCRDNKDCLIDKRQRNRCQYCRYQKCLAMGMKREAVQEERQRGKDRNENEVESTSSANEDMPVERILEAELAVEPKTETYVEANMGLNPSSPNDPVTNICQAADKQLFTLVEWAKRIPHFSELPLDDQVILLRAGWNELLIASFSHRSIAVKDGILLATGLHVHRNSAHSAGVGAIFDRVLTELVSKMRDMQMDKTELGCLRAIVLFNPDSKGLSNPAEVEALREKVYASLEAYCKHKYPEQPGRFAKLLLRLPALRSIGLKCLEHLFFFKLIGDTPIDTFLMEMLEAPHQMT
Method in brief: as §1

RARb:RXRa = RARb:RXRa (Homo sapiens, UniProt P10826;P19793 full;full); assay: as above; conditions: tags: His kept;His cleaved; copies: 1;1; label: surface-attached array probe
Chain of RARb:RXRa (P10826 whole entry, chain 1 of 2): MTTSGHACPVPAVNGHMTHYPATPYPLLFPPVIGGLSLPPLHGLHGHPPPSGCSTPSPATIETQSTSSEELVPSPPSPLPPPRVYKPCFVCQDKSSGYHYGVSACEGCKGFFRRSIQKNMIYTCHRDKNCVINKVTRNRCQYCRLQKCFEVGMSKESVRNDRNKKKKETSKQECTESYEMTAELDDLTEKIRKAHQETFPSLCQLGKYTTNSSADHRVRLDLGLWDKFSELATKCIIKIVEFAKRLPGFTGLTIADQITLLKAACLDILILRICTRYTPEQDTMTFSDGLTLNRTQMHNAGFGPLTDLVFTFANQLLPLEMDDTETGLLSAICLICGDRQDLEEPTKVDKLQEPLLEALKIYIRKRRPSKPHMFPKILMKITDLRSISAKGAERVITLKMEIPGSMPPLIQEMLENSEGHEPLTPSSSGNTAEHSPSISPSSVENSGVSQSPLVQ
Chain of RARb:RXRa (P19793 whole entry, chain 2 of 2): as the sequence (P19793 whole entry, chain 2 of 2) above
Method in brief: as §1

FXR:RXRa = FXR:RXRa (Homo sapiens, UniProt Q96RI1;P19793 full;full); assay: as above; conditions: tags: His kept;His cleaved; copies: 1;1; label: surface-attached array probe
Chain of FXR:RXRa (Q96RI1 whole entry, chain 1 of 2): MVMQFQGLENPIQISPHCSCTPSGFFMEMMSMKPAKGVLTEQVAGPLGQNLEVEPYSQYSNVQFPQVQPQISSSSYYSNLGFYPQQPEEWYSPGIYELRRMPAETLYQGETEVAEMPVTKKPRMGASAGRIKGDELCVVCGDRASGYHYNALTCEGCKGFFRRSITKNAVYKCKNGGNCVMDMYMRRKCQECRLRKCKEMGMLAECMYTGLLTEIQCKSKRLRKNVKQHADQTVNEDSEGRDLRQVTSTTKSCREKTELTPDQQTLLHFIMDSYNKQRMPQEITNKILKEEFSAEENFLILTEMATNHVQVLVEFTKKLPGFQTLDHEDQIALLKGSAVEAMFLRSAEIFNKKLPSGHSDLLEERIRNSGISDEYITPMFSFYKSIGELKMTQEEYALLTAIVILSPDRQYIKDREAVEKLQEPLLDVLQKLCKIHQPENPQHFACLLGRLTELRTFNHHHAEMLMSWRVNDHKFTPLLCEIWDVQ
Chain of FXR:RXRa (P19793 whole entry, chain 2 of 2): as the sequence (P19793 whole entry, chain 2 of 2) above
Method in brief: as §1

VDR:RXRa = VDR:RXRa (Homo sapiens, UniProt P11473;P19793 full;full); assay: as above; conditions: tags: His kept;His cleaved; copies: 1;1; label: surface-attached array probe
Chain of VDR:RXRa (P11473 whole entry, chain 1 of 2): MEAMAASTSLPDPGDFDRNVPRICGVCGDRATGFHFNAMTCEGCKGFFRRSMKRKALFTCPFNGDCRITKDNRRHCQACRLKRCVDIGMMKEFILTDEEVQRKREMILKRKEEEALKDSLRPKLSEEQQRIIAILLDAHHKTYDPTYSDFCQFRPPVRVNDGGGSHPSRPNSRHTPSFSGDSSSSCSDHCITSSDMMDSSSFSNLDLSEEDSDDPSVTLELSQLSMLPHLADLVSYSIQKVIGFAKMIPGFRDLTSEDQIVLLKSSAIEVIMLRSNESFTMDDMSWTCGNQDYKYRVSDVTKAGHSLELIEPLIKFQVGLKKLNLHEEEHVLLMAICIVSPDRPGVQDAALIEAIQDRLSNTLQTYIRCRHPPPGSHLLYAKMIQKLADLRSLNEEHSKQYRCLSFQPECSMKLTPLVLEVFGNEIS
Chain of VDR:RXRa (P19793 whole entry, chain 2 of 2): as the sequence (P19793 whole entry, chain 2 of 2) above
Method in brief: as §1

RXRa = RXRa (Homo sapiens, UniProt P19793); assay: no ligand; PBM; 180 nM; PBS pH 7.4, 2% milk, 0.02% Triton X-100, 1 mM DTT, BSA, 0.4 mg/ml salmon testes DNA; conditions: tags: His cleaved; chain copies: 2; label: surface-attached array probe
Chain of RXRa (P19793 whole entry): as the sequence (P19793 whole entry, chain 2 of 2) above
RARg:RXRa = RARg:RXRa (Homo sapiens, UniProt P13631;P19793 full;full); assay: no ligand; PBM; 270 nM : 90 nM RXRa; PBS pH 7.4, 2% milk, 0.02% Triton X-100, 1 mM DTT, BSA, 0.4 mg/ml salmon testes DNA; conditions: tags: His kept;His cleaved; copies: 1;1; label: surface-attached array probe
Chain of RARg:RXRa (P13631 whole entry, chain 1 of 2): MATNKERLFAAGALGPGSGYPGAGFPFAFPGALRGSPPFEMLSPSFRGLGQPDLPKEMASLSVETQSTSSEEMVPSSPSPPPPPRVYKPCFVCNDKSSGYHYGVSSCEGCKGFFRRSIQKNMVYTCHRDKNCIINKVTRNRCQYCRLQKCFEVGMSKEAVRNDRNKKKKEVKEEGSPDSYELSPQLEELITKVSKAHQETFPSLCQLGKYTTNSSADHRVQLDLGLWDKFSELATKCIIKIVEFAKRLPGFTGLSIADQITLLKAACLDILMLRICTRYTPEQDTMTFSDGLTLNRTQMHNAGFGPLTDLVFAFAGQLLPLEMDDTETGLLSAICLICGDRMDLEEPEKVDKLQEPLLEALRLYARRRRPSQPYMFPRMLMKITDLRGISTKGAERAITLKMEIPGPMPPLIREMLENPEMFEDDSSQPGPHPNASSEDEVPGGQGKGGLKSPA
Chain of RARg:RXRa (P19793 whole entry, chain 2 of 2): as the sequence (P19793 whole entry, chain 2 of 2) above
Method in brief: as §1

Chain of LXRa:RXRa (Q13133 whole entry, chain 1 of 2): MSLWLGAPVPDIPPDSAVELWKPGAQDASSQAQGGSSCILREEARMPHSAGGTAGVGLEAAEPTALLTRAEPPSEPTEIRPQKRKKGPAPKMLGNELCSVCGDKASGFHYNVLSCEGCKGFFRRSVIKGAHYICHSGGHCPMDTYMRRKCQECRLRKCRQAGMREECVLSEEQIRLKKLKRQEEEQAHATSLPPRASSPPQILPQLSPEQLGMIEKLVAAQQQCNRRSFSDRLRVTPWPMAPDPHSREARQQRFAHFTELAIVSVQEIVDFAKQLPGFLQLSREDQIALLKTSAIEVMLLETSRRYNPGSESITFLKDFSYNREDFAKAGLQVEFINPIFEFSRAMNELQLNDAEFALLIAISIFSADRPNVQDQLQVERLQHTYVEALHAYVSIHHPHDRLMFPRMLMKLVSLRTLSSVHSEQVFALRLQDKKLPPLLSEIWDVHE
Chain of LXRa:RXRa (P19793 whole entry, chain 2 of 2): as the sequence (P19793 whole entry, chain 2 of 2) above

B1: NRC3_random_hg19_311_o1 (dsDNA)
DNA 1: GCTCACTTATGAAGCTTAGGTTGGCTGGATATGAAAGCGATTGACAGCGTAGAATGAAGG
DNA 2: CCTTCATTCTACGCTGTCAATCGCTTTCATATCCAGCCAACCTAAGCTTCATAAGTGAGC
binding signal (LXRa:RXRa): 0.15 PBM z-score against 500 random probes
binding signal (PPARa:RXRa): -0.15 PBM z-score against 500 random probes

B2: NRC3_random_hg19_272_o1 (dsDNA)
DNA 1: GCGTGCATTTGCTCCCAGAGGCTCTGCTCTTGCCCTGCGATTGACAGCGTAGAATGAAGG
DNA 2: CCTTCATTCTACGCTGTCAATCGCAGGGCAAGAGCAGAGCCTCTGGGAGCAAATGCACGC
binding signal (RARb:RXRa): -0.53 PBM z-score against 500 random probes
binding signal (LXRa:RXRa): -0.36 PBM z-score against 500 random probes

B3: NRC3_wobSeed29_DR1_G9A_o1 (dsDNA)
DNA 1: GCGCTTACAGGTCAAAGGTTATAGCATGAATAGAATGCGATTGACAGCGTAGAATGAAGG
DNA 2: CCTTCATTCTACGCTGTCAATCGCATTCTATTCATGCTATAACCTTTGACCTGTAAGCGC
binding signal (FXR:RXRa): 8.14 PBM z-score against 500 random probes
binding signal (LXRa:RXRa): 6.61 PBM z-score against 500 random probes

B4: NRC3_random_hg19_50_o1 (dsDNA)
DNA 1: GCTGAAGAGTTTCTAACTCTTTGTTCTTGAATCAAAGCGATTGACAGCGTAGAATGAAGG
DNA 2: CCTTCATTCTACGCTGTCAATCGCTTTGATTCAAGAACAAAGAGTTAGAAACTCTTCAGC
binding signal (VDR:RXRa): -0.07 PBM z-score against 500 random probes
binding signal (LXRa:RXRa): -0.55 PBM z-score against 500 random probes

B5: NRC3_random_hg19_258_o1 (dsDNA)
DNA 1: GCGTAAGATGGCAGGTGCCCAGAGCTAAGCTTTGATGCGATTGACAGCGTAGAATGAAGG
DNA 2: CCTTCATTCTACGCTGTCAATCGCATCAAAGCTTAGCTCTGGGCACCTGCCATCTTACGC
binding signal (RXRa): -0.61 PBM z-score against 500 random probes
binding signal (RARg:RXRa): -0.94 PBM z-score against 500 random probes
binding signal (LXRa:RXRa): -1 PBM z-score against 500 random probes

B6: NRC3_wobSeed26_DR1_A14T_o1 (dsDNA)
DNA 1: GCTCTAGTTGGTCTAAGGTCACACACTCGAAATGCGGCGATTGACAGCGTAGAATGAAGG
DNA 2: CCTTCATTCTACGCTGTCAATCGCCGCATTTCGAGTGTGTGACCTTAGACCAACTAGAGC
binding signal (VDR:RXRa): 4.12 PBM z-score against 500 random probes
binding signal (LXRa:RXRa): 4.12 PBM z-score against 500 random probes

B7: NRC3_wobSeed122_DR5_C24G_o1 (dsDNA)
DNA 1: GCGCTAGTTGGTCAGTAAAAGGTGACACACCGGTCGGCGATTGACAGCGTAGAATGAAGG
DNA 2: CCTTCATTCTACGCTGTCAATCGCCGACCGGTGTGTCACCTTTTACTGACCAACTAGCGC
binding signal (VDR:RXRa): 0.14 PBM z-score against 500 random probes
binding signal (LXRa:RXRa): 0.28 PBM z-score against 500 random probes

B8: NRC3_wobSeed134_DR5_G11T_o1 (dsDNA)
DNA 1: GCGCTGCTAGTTCAACTGATGGTCAGCTAAAGCTCGGCGATTGACAGCGTAGAATGAAGG
DNA 2: CCTTCATTCTACGCTGTCAATCGCCGAGCTTTAGCTGACCATCAGTTGAACTAGCAGCGC
binding signal (RXRa): 0.29 PBM z-score against 500 random probes
binding signal (LXRa:RXRa): 0.25 PBM z-score against 500 random probes
binding signal (PPARa:RXRa): 0.24 PBM z-score against 500 random probes

B9: NRC3_wobSeed120_DR4_T8A_o1 (dsDNA)
DNA 1: GCCCGAGAAGGTTACGAGGGGGCATTCAGTGCGAATGCGATTGACAGCGTAGAATGAAGG
DNA 2: CCTTCATTCTACGCTGTCAATCGCATTCGCACTGAATGCCCCCTCGTAACCTTCTCGGGC
binding signal (RARg:RXRa): 4.2 PBM z-score against 500 random probes
binding signal (LXRa:RXRa): 8.13 PBM z-score against 500 random probes

B10: NRC3_random_hg19_145_o1 (dsDNA)
DNA 1: GCGCCCAGTAGTTTGAGACCAGCCTGGACAACATGGGCGATTGACAGCGTAGAATGAAGG
DNA 2: CCTTCATTCTACGCTGTCAATCGCCCATGTTGTCCAGGCTGGTCTCAAACTACTGGGCGC
binding signal (LXRa:RXRa): -0.81 PBM z-score against 500 random probes

B11: NRC3_wobSeed42_DR1_A6T_o1 (dsDNA)
DNA 1: GCTATTCAGGGTCAAAGGCCAGAGTACGAATGTCGAGCGATTGACAGCGTAGAATGAAGG
DNA 2: CCTTCATTCTACGCTGTCAATCGCTCGACATTCGTACTCTGGCCTTTGACCCTGAATAGC
binding signal (LXRa:RXRa): 7.1 PBM z-score against 500 random probes
binding signal (PPARa:RXRa): 6.67 PBM z-score against 500 random probes

B12: NRC3_random_hg19_12_o1 (dsDNA)
DNA 1: GCTTCCAGAATCAGACAATCACTGGGCTTGAACCAGGCGATTGACAGCGTAGAATGAAGG
DNA 2: CCTTCATTCTACGCTGTCAATCGCCTGGTTCAAGCCCAGTGATTGTCTGATTCTGGAAGC
binding signal (RXRa): -0.01 PBM z-score against 500 random probes
binding signal (RARb:RXRa): -0.1 PBM z-score against 500 random probes
binding signal (FXR:RXRa): 0.11 PBM z-score against 500 random probes
binding signal (LXRa:RXRa): -0.13 PBM z-score against 500 random probes

B13: NRC3_random_hg19_287_o1 (dsDNA)
DNA 1: GCTCACTCAGAAGAGCAGAGCGACAGTGAATCTGAGGCGATTGACAGCGTAGAATGAAGG
DNA 2: CCTTCATTCTACGCTGTCAATCGCCTCAGATTCACTGTCGCTCTGCTCTTCTGAGTGAGC
binding signal (RXRa): 0.27 PBM z-score against 500 random probes
binding signal (RARb:RXRa): -0.16 PBM z-score against 500 random probes
binding signal (LXRa:RXRa): 0.05 PBM z-score against 500 random probes

B14: NRC3_random_hg19_261_o1 (dsDNA)
DNA 1: GCCTGGCTCCAGACAGACAAGAAGACTCCTTCAGTCGCGATTGACAGCGTAGAATGAAGG
DNA 2: CCTTCATTCTACGCTGTCAATCGCGACTGAAGGAGTCTTCTTGTCTGTCTGGAGCCAGGC
binding signal (RXRa): -0.45 PBM z-score against 500 random probes
binding signal (LXRa:RXRa): -1.08 PBM z-score against 500 random probes

B15: NRC3_random_hg19_442_o1 (dsDNA)
DNA 1: GCTACGGAGTGCTGATCAGTCAGGTTGGAGATGGAAGCGATTGACAGCGTAGAATGAAGG
DNA 2: CCTTCATTCTACGCTGTCAATCGCTTCCATCTCCAACCTGACTGATCAGCACTCCGTAGC
binding signal (LXRa:RXRa): -0.9 PBM z-score against 500 random probes

B16: NRC3_random_hg19_430_o1 (dsDNA)
DNA 1: GCGAAGGACCTTTAGATCCTGAGACAGAACTTAGGCGCGATTGACAGCGTAGAATGAAGG
DNA 2: CCTTCATTCTACGCTGTCAATCGCGCCTAAGTTCTGTCTCAGGATCTAAAGGTCCTTCGC
binding signal (LXRa:RXRa): -0.59 PBM z-score against 500 random probes

B17: NRC3_random_hg19_94_o1 (dsDNA)
DNA 1: GCACTATCTTGTGTCTCATCTGAGACATAGATGGATGCGATTGACAGCGTAGAATGAAGG
DNA 2: CCTTCATTCTACGCTGTCAATCGCATCCATCTATGTCTCAGATGAGACACAAGATAGTGC
binding signal (LXRa:RXRa): -0.69 PBM z-score against 500 random probes
binding signal (PPARa:RXRa): -0.62 PBM z-score against 500 random probes

B18: NRC3_wobSeed21_DR0_A19C_o1 (dsDNA)
DNA 1: GCCGTCAAAGTTCAAGGTCACGTAACAGAAAGCAGCGCGATTGACAGCGTAGAATGAAGG
DNA 2: CCTTCATTCTACGCTGTCAATCGCGCTGCTTTCTGTTACGTGACCTTGAACTTTGACGGC
binding signal (RARb:RXRa): 5.98 PBM z-score against 500 random probes
binding signal (FXR:RXRa): 7.82 PBM z-score against 500 random probes
binding signal (LXRa:RXRa): 6.86 PBM z-score against 500 random probes
binding signal (PPARa:RXRa): 6.5 PBM z-score against 500 random probes

B19: NRC3_random_hg19_57_o1 (dsDNA)
DNA 1: GCTAGCTGAGACTACATGCCACCATGCCTGGCTAATGCGATTGACAGCGTAGAATGAAGG
DNA 2: CCTTCATTCTACGCTGTCAATCGCATTAGCCAGGCATGGTGGCATGTAGTCTCAGCTAGC
binding signal (LXRa:RXRa): -0.61 PBM z-score against 500 random probes

B20: NRC3_random_hg19_255_o1 (dsDNA)
DNA 1: GCGGAGGGCAGGCAGGCCTGGAGGAGCATGTGGTGTGCGATTGACAGCGTAGAATGAAGG
DNA 2: CCTTCATTCTACGCTGTCAATCGCACACCACATGCTCCTCCAGGCCTGCCTGCCCTCCGC
binding signal (FXR:RXRa): -0.16 PBM z-score against 500 random probes
binding signal (LXRa:RXRa): -0.19 PBM z-score against 500 random probes

B21: NRC3_random_hg19_69_o1 (dsDNA)
DNA 1: GCCCAGGTGGCAGGATCCCTGCATCTGGTTTCCTCAGCGATTGACAGCGTAGAATGAAGG
DNA 2: CCTTCATTCTACGCTGTCAATCGCTGAGGAAACCAGATGCAGGGATCCTGCCACCTGGGC
binding signal (FXR:RXRa): -0.63 PBM z-score against 500 random probes
binding signal (LXRa:RXRa): -0.63 PBM z-score against 500 random probes

B22: NRC3_random_hg19_425_o1 (dsDNA)
DNA 1: GCCTGTTAGGTTGATTCTATGTCTTGGCTATTGTGTGCGATTGACAGCGTAGAATGAAGG
DNA 2: CCTTCATTCTACGCTGTCAATCGCACACAATAGCCAAGACATAGAATCAACCTAACAGGC
binding signal (FXR:RXRa): 0.23 PBM z-score against 500 random probes
binding signal (LXRa:RXRa): 0.31 PBM z-score against 500 random probes

Source: publication PMC6555819, “Comprehensive study of nuclear receptor DNA binding provides a revised framework for understanding receptor specificity”
